This is an account of results in a protein production outcome set (Wang et al. 2014).

A short description of the data set: label from the status in PepcDB records.

Turning to “MFQYRFKRSFSSDPNLSDTIGDRLFDLMEATFPGLNDLAECGRKLGAPWEKASTPFIRFHDDVAITHVGVLEIPMVILGQRVTVGGIHGVATREEFRRRGYYREVMEEALEYCDQIYETLVLTTPEPEYYLPFGFRVVEEYIFH”, the protein production entry is reported as “failed”.
For the sequence “MFRALKDKKRFIRNLILTFIIFLFIFLLYQFEAFRDIIFIVLVSGIFAYILKPLYRFLCERTKINKNFLAMAIVLSVIFLILFFLTVLIPSMFKEGESFDGLINGIEFFINDLIMKMKFMELGIFDVIEAQVTEKLNILLVSFATSIINNLISFSENILAFAVIPVLAYYFLAYGDLLSNKFLYCCPMEKRALLKNLGRDVDKVLGKYILGQLLLSLLVGVMTFIGMLILGIKFPLLLAFLNALLNIIPYFGAVLGAIPAIVVALVEGPNKILWVILTFLIIQQIEGNLIAPKITAESIDMHPILIIILLLIGEQIGGLLGMVFIVPIAVVIKVLFDDWDYYMFL”, the protein production entry is recorded as “failed”.
Consider “MFRCQTKGWCKSLKPKVFLEFVEIKSLIASVLPFVLGSMYAYYNYHQLHLGYLLLFFIASSLFHMATNANDNYQDFLHAPRNDDNQEFLQETNVVGVNQISIGQARTITFGLAGISLIIGLWLVTQTGLPLLWMGLYSYAVGYFYAGGPKPISQGPFGEFFSGFTMGFMIFWIAVFINTYDTAAITWQSTLAVLIASGLAIFAISNIMLANNICDMDEDIALGRHTILYYLGKPVMLQVFAWSYVAGYACLVIAVLMGVLPKFSLLTLLSIIPVWKNTRVFLHKQVKRETFTISIKNATLICLSFIVFMGLGLIFN”, for which the protein production result is “failed”.
Turning to “MFRFNLCVLLFATLATLSAAQEQTPAYVGSAECRDCHTKAAEAWEGSHHAKAWTAPTAENIVADFNDTEFRHDGTLTRFRVEDGRHYITVTEKDGVTTDYPVHSVAGIEPLQQYLLETEPGRIQSFDVVWDTIKQEWFHLYPDQDLPPDDGLHWTGPYKNWNARCAECHATGFEKNYSPVTRSYSSVPVEIGVGCEACHGPGSAHIAWATGKSLEEPLTGLSEYRLTIDYDAGTETVLQQCASCHSRREAHFDGNPVPGIPFNDAYALALLRPGAYHADGQILDEVYVYGSFLQSKMYQQGVSCSNCHEVHSAELKAEGNGVCTQCHSPAGNPSFTTLDSKNYDDPSHHYHEAGTEGAQCKSCHMIERVYMGVDGRRDHSFRIPRPDISLETDSPNACTDCHSDQSSAWAAAAIEEWYPDSENRGLHYGQVLAAGRANAVAARVPLTDLAGDTTQPGIARATALWLLEQSGDATLGAELSSMLTDTDPLVRAAAASAHGLFPPAERAAALEPALDDPRRMVRIAAGKTLLDVPRSALTPSASERLGAALREWQAGLLNRADFPETHIILAGTALTMRNFEGAERAFREVVLMDPQREEAWVMLVRIADAMRGPQAAAQVLDEALQAVPGSDTLNSMRSESLLPPQ”, the protein production result is reported as “failed”.
“MFRIIQPHRWKLAVLMIAANLGLLAFLAFGTIKHVSEWQWLDIVGEGGSALLSLVWLFLVFKSRPAGRVTNYLSVGLSCVFFSWWIDALDEFIRLPAEIEWDHWLESGPMPVGLILLTLGIYHWHREQLAISAQMEKRERGFREHRLYDKLTPLGSADYLKRQLIVSLEQSLCQQQPLSLLALDLDGFSTINNAFGHAEGDEVLSAISHLLVLNLRRQDLLCRLAGDRFVVLMPNTGESQAKLLALELQQAVASLAHKTRQQGERLHLSASVAVVMALNETPDNLLRRLNLSLARARRPLTRTA”: the protein production result is reported as “failed”.
Regarding “MFRPENVQALAGLALTLGLCWLVSENRKRFPWGLAIGAVVIQVLLVLVLFGLPQAQQMLRGVNGAVEGLAASTQAGTAFVFGFLAGGDQPYPVSNPGAGFIFAFRVLPVILVVCALSALLWHWKILKWLAQGFGFVFQKTLGLRGPPALATAATIFMGQVEGPIFIRAYLDKLSRSELFMLIAVGMACVSGSTMVAYATILADVLPNAAAHVLTASIISAPAGVLLARIIVPSDPMEKSADLDLSTEDKTYGSSIDAVMKGTTDGLQIALNVGATLIVFVALATMVDKVLGAFPPVGGEPLSIARGLGVVFAPLAWSMGIPWKEAGTAGGLLGVKLILTEFTAFIQLSKVGEALLDERTRMIMTYALCGFANIGSVGMNVAGFSVLVPQRRQEVLGLVWKAMMAGFLATCLTASLVGLMPRSLFGL”, the protein production result is reported as “failed”.
Take “MFRWFIAAIEDVYLPVPVMHLLTSNFAPFPWQHLDYTVVQLTKQDSNCLQALFERCTDFFNLTTGQPPASTAAEAEFVDVPAGKTPEDLHVFGLHHPQKGLIGTIIAVQDYPEAATWWIGTMLIDPVYRSQGVGSAFYQAFERWLAAQGVTGIELCAIASNTSGRAFWQRMGFEEIRQTPSRSFGQRHHIAHVYRRCLILLTRRAEFESYDPLNSLNAYLCKTEVINWQHPDIQALAQQLAAGHETPVVIAQACFEWVRDAIRHSVDYQMNPVTWRASDVLQHKTGYCFAKSHLLAALLRANQIPAGFCYQRLSIDDRGTPYSLHGFNAVYLPITGWHRVDPRGNKPGIDTKFSPPIEHLAYQPKLDEEADFSAILAEPLAIVVTALQTHATWDALLHHLPDMTPNTATTIGLYCY”: the protein production entry was “failed”.
The entry for “MFSKGVDSLDRTQDDPVHCMPGLTAGLSGRLLLLTVIFVMIAEVLIFVPSVANMRLSWLRDRLNTAAAAGAVIDGLQAELPRSVQNDTLMATGAKLIALRKDGTSRLLAVAETPPGVDEQYDLSDVSQAAAVRDAFSTLLFGGNRVIRVFDVVGDSDTIIELVLGENKLRAAMLAYARNVFLISIVLSLVTAGLIFISINRIMIRPIRRLTLGMQNFSEDPGNPERIFVPEEGTDELSVAGRHLADMQTELQKTLRQQKNLVDLGLAVSKINHDMRNILSSAQLMSDRLVDAKDPMVRSFAPKLLRTIDRAVAYTGEVLAYGQATEGAPKRKIVPLSLLVRDVRDILALDPDSGIEFHDSVPPDLTVDADSEQLFRVIHNLCRNAVQALQSDVANSAPRHLSISAQRAGSVVSIVIDDNGPGMPRKAKENLFSAFRGSARSGGTGLGLVIARELVLAHGGTIALVEKPGPGTQFRIEIADRAASIQAARTA” is “failed”.
Consider “MFSMILSGLICGALLGFVMQRGRFCLTGGFRDMYIVKNNRMFYALLIAISVQSVGVFALIQAGLLTYEAGAFPWLGTVIGGYIFGLGIVLAGGCATGTWYRAGEGLIGSWIALFTYMVMSAVMRSPHASGLNQTLQHYSTEHNSIAETFNLSVWPLVAVLLVITLWVVMKELKKPKLKVATLPPRRTGIAHILFEKRWHPFVTAVLIGLIALLAWPLSEATGRMFGLGITSPTANILQFLVAGDMKYINWGVFLVLGIFVGSFIAAKASREFRVRAADAQTTLRSGLGGVLMGFGASIAGGCSIGNGLVMTAMMTWQGWIGLVFMILGVWTASWLVYVRPQRKARLATAAAN”, for which the protein production entry is “failed”.
For the sequence “MFSPEQIAGKDVRLLRIKKEGSLDLALEGGVDSPVGKVVVSAVYEGGAAERHGGVVKGDEIMAINGKIVTDYTLAEAEAALQKAWNQGGDWIDLVVAVCPPKEYDDELTFF”, the protein production entry was “not failed”.
As for “MFSQWVFLSVLALAVPSFAWAEDAVSDLAREQSKAEQGDKRGDELFAEFTRLRQAAETGEPQALFDFGAYFYQQQNYASAREWWGKAAAAGMVRAQIQLAMLYRDGDGGPQDKTEAARWFRKAAEQGDAAAQNEMGVLYWRGEGVDQDRVKAGTWFERAAASGSEDAETNLGWFYLDDSQGVYSATSDEEAALLDRYAGSREKAFQWFCKAATQGDARAQFKVGEAYWNGSGAGMNKLQARLWLEKAAQQQDADAIAWLESAANAAWYTRLENWIHAALDGELSGVADCSGAADRRHSGRGMEGAPSDPEAVEASAEDAQQAVEAASQ”, the protein production result is reported as “failed”.
The entry for “MFTAYKKFWTNYVNFTGRSSRSDYWWAILCNSLIILPFVFTATSIFYSNLIEFIRGSAISTFSGEESVLSVYSIDVIILFIIIVLFSLAILLPNLAISIRRLRDAGFHWSLIFVPIGAALFSFLGLIPFLRAIVSIIVWFALIFYYILLCQPSKPYQAPVQPIAPQQPQQMAPQGQPVQAQVQPQSQTTPQQPQTPPVQQPQAPTNQQ” is “failed”; for “MFTHLDENQQPRMVDISQKVAGDRRAVAQCIVQLPKAIKDYLTGQEIFLKKGPVIQTAIIAGTMAVKKTADLIPFCHTLPIHGCKFDINIVYQKRDYLEIFLQCAVNTNYKTGVEMEALCGVSVAALTIYDMCKSISSEIIIKNTKLIEKTGGKADVSQTPLYGLVLTGGKSRRMGKDKALINYQGQPHGQYIYDLLAKYCEQVFLSARPSQWQGTPLENLPTLVDRGESVGPMSGILTALQSYPGVNWLIIACDLAYINSTMVEKLIAQARQDLVATCYENADQGFPEALCGFYTPLALQLFTKAQNIGLHCPVKILQMADCQLIKPDNLFDIANINSPEDYGQINLEHHHHHH” it is “not failed”; for “MFTMDDLNQMDTQTLTDTLGSIFEHSSWIAERSAALRPFSSLSDLHRKMTGIVKAADRETQLDLIKKHPRLGTKKTMSDDSVREQQNAGLGKLEQQEYEEFLMLNEHYYDRFGFPFILAVKGKTKQDIHQALLARLESERETEFQQALIEIYRIARFRLADIITEKGETQMKRTMSYGKGNVFAYRTYLKPLTGVKQIPESSFAGRDNTVVGVDVTCEIGGEAFLPSFTDGDNTLVVATDSMKNFIQRHLASYEGTTTEGFLHYVAHRFLDTYSHMDTITLTGEDIPFEAMPAYEEKELSTSRLVFRRSRNERSRSVLKAERSGNTITITEQYSEIMDLQLVKVSGNSFVGFIRDEYTTLPEDGNRPLFVYLNISWQYENTNDSYASDPARYVAAEQVRDLASTVFHELETPSIQNLIYHIGCRILARFPQLTDVSFQSQNHTWDTVVEEIPGSKGKVYTEPRPPYGFQHFTVTREDAEKEKQKAAEKCRSLKA” it is “failed”.
In the case of “MFVFMLLLLLPFTISKAKDFPANPIEKAGYKLDFSDEFNGPTLDREKWTDYYLPHWCKDPESAKANYRFENGSLVEYITEDQKPWCPEHDGTVRSSAIMSFDKSWIHNFSGTTDNHERNEWRGYTTKYGYFEIRAKLSNTGGGGHQAWWMVGMQDDTNDWFNSKQTGEIDILETFFSKKDTWRIAAYGWNDPNFQTSWTISEDKVPSGDPTSEYHIYAMEWTPTALKFYYDNELFKVIYGSPDYEMGTILNIYTDAGSGAHNDVWPKEWAIDYMRVWKPVDGYKESESLNNYLIRNRQTGKFLYIEENNDKVSYGDITLKNEKNAKWSKEYRDGYTLLKNNETGEYLNIENQTGYIEHGKVPKTWWSAQWSEVPVDGYTRFVNRWKPNMSIHTESYEGVLQYGNVPNTYWTSQWQLIPVE”, the protein production result was “not failed”.
With “MFVGFLSGLIVMGALLSILLVLLGVMALRVFVRYILPILLILLIIRLIISGIVLLFNPHFWLFIAVVALVLWILGKIRN”, the protein production entry is reported as “failed”.
“MFVLNIFSTTHKQRGLNRASCPPLGNYSNNHTLAYRVKCISEETRDSNSLVSSLNRKLWKTSVAGSDIPMIYSPFLEDMQNTLFASFETVEDYPLSEFLASAQSSKKPARIESWCYQCPKFRKIRLTYLDAGVAAQVFNAVWYPISSLELPILGVDFLSFGGKNVLCVMDFQPLMNDQYYLDKYIQPLHPIRERYADLAGRMSSRFYDENRFFSKELLFGRFDSTKPIYERLFPAFREYLDLYITLAKQTVEDDKSRSIIWQLQCEYDRYSAEKDPAMSLFRSYFGSTWAHRFVYEFLFENSRYESSLDNKT”: the protein production result is given as “not failed”.
The entry for “MFVNQHGYSFGLSCALDGLSKREKDAQRQNKLLELGLLTNRNSTFFEEATQTLARNLGLPICLVGLMVEDEINIVSAVGIYRLGVGNPNLVSRQISRNDAYCTLVVDSAMPLMITDALAEPFFAEGELYQRYGIRSYLGTPLLTRDGVCLGTLAALDFSPHDFREPDVALMNMTARWCMGEIEH” is “failed”.
